According to the supplement of paper PMC11865577:

How the values were obtained:
Test in all cases: pull-down binding Z-score (relative to library population); higher = stronger binding
Details in all cases: RNA library: Library-2
[1] = system: TO-3-N3-2 (biotin conjugate)
Outline: (§1)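 The RNA library, end-labelled with Cy5 or Cy3, was heat-folded in phosphate/NaCl/KCl buffer, and 1 μg was incubated at 25 °C for 60 min with streptavidin beads carrying 100 pmol of biotin-conjugated small molecule. Hot SDS released the bound RNA, which was then hybridised to a DNA barcode microarray for 20 h at 55.5 °C. For scoring binding, signal from beads alone was subtracted, replicate barcoded probes were averaged after discarding the highest and lowest, and each value was turned into a Z-score from the library mean and standard deviation.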

[2] = system: TO-N3-2 (biotin conjugate)
Outline: as §1

[3] = system: TO-3-N3 (biotin conjugate)
Outline: as §1

TO-N3 (biotin conjugate) = system: TO-N3 (biotin conjugate)
Outline: as §1

| Sequence | pull-down binding Z-score [1] | pull-down binding Z-score [2] | pull-down binding Z-score [3] | pull-down binding Z-score (TO-N3 (biotin conjugate)) |
| --- | --- | --- | --- | --- |
| CUUUUAUGUCUAUGCUAAUGGAGGUAAAGG [SHAPE_invivo_SARS-CoV-2_Motif_154] | -0.487 | -0.771 | -0.524 | -0.68 |
| CUUUUGAAGAAG [SHAPE_invivo_SARS-CoV-2_Motif_195] | -0.577 | -1.33 | -0.686 | -1.16 |
| GAAAAGAACAAUCAAGGGUACACACCACUGGUUGUUACUCACAAUUUUGACUUCACUUUUAGUUUUAGUCCAGAGUACUCAAUGGUCUUUGUUCUUUUU | -0.0313 | 0.0117 | -0.824 | -0.121 |
| GAAAAUGACUCUAAAGAGGGUUUUUUC [SHAPE_invitro_SARS-CoV-2_Motif_382] | -0.323 | -0.375 | -0.0158 | -0.18 |
| GAAAUACUUGUCACAUACAAUUGUUGUGAUGAUGAUUAUUUC | -0.399 | -1.14 | -1.15 | -1.39 |
| GAAAUUUGACACCUUCAAUGGGGAAUGUCCAAAUUUU [SHAPE_invitro_SARS-CoV-2_Motif_22] | -0.434 | -0.988 | -0.726 | -0.92 |
| GAACCUUGCUCUUCUGGAACAUACGAGGGCAAUUC | -0.0628 | -0.153 | 0.401 | 0.239 |
| GAACUCUACUAAUGUCACUAUUGCAACCUACUGUACUGGUUCUAUACCUUGUAGUGUUUGUCUUAGUGGUUUAGAUUC [DMSMaPseq_invitro_SARS-CoV-2_Motif_135] | -0.164 | -0.471 | 0.03 | -0.105 |
| GAAGAGGGAGCAAUUGUUGGCGAAAUUUCACCAUUGCCUUCUCUUC [IAV_invivo_NS1_NEP_8_Motif_10+IAV_invivo_NS1_NEP_8_Motif_10] | 0.262 | -0.213 | -0.045 | 0.0993 |
| GAAGGCUAUUUGAACUCUACUAAUGUCACUAUUGCAACCUACUGUACUGGUUCUAUACCUUGUAGUGUUUGUCUUAGUGGUUUAGAUUCUUU | -0.458 | -0.467 | -0.541 | -0.505 |
| GAAGGUCUUAAUGACAACCUUC [SHAPE_invitro_SARS-CoV-2_Motif_33] | -0.502 | -1.39 | -0.78 | -1.28 |
| GAAGUCACACCUUC [SHAPE_invitro_SARS-CoV-2_Motif_534] | -0.725 | -0.517 | 0.0219 | -0.137 |
| GAAGUUACAACAACUCUGGAAGAAACUAAGUUCCUCACAGAAAACUUGUUACUUU [DMSMaPseq_invitro_SARS-CoV-2_Motif_72] | -0.321 | 0.97 | -0.508 | -0.304 |
| GAAUGCGUCAUCAUCUGAAGCAUUU | -0.405 | -0.61 | -0.994 | -1.1 |
| GAAUGGAGAACGCAGUGGGGCGCGAUCAAAACAACGUCGGCCCCAAGGUUUACCCAAUAAUACUGCGUCUUGGUUC | 0.382 | 0.849 | 0.148 | 0.452 |
| GAAUUUACACCUUUUGAUGUUGUUAGACAAUGCUCAGGUGUUACUUUC | -0.394 | -0.632 | 0.167 | 0.0292 |

| Sequence | pull-down binding Z-score [1] | pull-down binding Z-score [2] | pull-down binding Z-score [3] | pull-down binding Z-score (TO-N3 (biotin conjugate)) |
| --- | --- | --- | --- | --- |
| GACAAUGUCUUAUCUACUUUUAUUUCAGCAGCUCGGCAAGGGUUUGUUGAUUCAGAUGUAGAAACUAAAGAUGUUGUU | -0.111 | -0.776 | -0.56 | -0.599 |
| GACAGCAGAUAUAGUUGUC | 0.368 | -0.0659 | 0.607 | 0.331 |
| GACAGUGGUUGCCUACGGGUACGCUGCUUGUC | -0.021 | 0.01 | 0.731 | 0.666 |
| GACAUCACUUUCUUAAAGAAAGAUGCUCCAUAUAUAGUGGGUGAUGUU [DMSMaPseq_invitro_SARS-CoV-2_Multi_15_ComplexLevel_1] | -0.0858 | -0.466 | -0.0756 | -0.173 |
| GACAUGUUCCUCGGAACUUGUC | -0.631 | -0.965 | -0.926 | -1.35 |
| GACAUUUUAUCUUACUAAUGAUGUUUCUUUUUUAGCACAUAUUCAGUGGAUGGUUAUGUU [DMSMaPseq_invitro_SARS-CoV-2_Motif_175] | 0.317 | 0.0287 | 0.0838 | 0.455 |
| GACCAGAAAUCAGCCCGAAUGGUU [IAV_invivo_PB1_2_Motif_17+IAV_invivo_PB1_2_Motif_17] | -0.175 | -0.162 | -0.477 | -0.464 |
| GACCCUAAGACUAAAAAUGUUACAAAAGAAAAUGACUCUAAAGAGGGUUUUUUCACUUACAUUUGUGGGUU | 0.101 | -0.519 | -0.131 | -0.227 |
| GACCCUGUGGGUU [SHAPE_invitro_SARS-CoV-2_Motif_242] | -0.329 | -0.805 | 0.817 | 0.574 |
| GACGACUACUAGCGUGCCUUUGUAAGCACAAGCUGAUGAGUACGAACUUAUGUACUCAUUCGUU [SHAPE_invivo_SARS-CoV-2_Multi_65_ComplexLevel_1] | 0.0759 | 0.764 | 0.114 | 0.417 |
| GACUACUAGCGUGCCUUUGUAAGCACAAGCUGAUGAGUACGAACUUAUGUACUCAUUCGUUUCGGAAGAGACAGGUACGUUAAUAGUU [SHAPE_invitro_SARS-CoV-2_Multi_71_ComplexLevel_1] | 0.392 | 0.672 | 0.389 | 0.649 |
| GACUCAUUCAAGGAGGAGUU [SHAPE_invivo_SARS-CoV-2_Motif_469] | -0.149 | -0.297 | 0.25 | 0.111 |
| GACUCUGAGCCAGUGCUCAAAGGAGUC | -0.434 | -0.0814 | -0.523 | -0.677 |
| GACUUAUGAAAACUAUAGGUC | 0.00298 | -0.341 | -0.388 | -0.299 |
| GACUUCAGUAACUCAGGUUCUGAUGUU | -0.426 | -0.704 | -0.751 | -0.829 |
| GACUUGCUUUAGCACUCAAUUUGCUUUUGCUUGUC | -0.00573 | -1.08 | 0.241 | -0.0156 |
